Experimental data: patent publication US20220324970A1 (Janssen / Centocor, published 2022)
Read-outs that look alike come from different tables or passages of the source.

T1: hpIgR_D2-D3
T1 construct: HIS-tagged construct from HEK293 cells; also called human pIgR extracellular domain 2-domain 3 (D2-D3); hD2-D3
T1 HIS-tagged domain construct: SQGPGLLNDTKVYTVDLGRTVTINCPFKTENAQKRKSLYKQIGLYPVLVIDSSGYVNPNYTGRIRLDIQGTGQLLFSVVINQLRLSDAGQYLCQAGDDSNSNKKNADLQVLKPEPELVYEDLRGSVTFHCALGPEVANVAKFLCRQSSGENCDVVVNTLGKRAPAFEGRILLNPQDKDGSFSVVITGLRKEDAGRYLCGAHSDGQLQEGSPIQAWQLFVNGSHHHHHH

T2: hpIgR_D3
T2 construct: HIS-tagged construct from HEK293 cells; also called human pIgR extracellular domain 3 (D3); hD3
T2 HIS-tagged domain construct: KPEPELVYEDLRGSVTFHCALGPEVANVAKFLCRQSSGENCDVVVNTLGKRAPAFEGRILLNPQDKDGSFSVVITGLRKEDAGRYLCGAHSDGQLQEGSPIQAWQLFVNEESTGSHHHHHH

T3: human pIgR extracellular domain 4-domain 5 (D4-D5) (human, UniProt P01833 350-565)
T3 construct: HIS-tagged construct made in HEK293 cells; also called hpIgR domains 4-5
T3 chain: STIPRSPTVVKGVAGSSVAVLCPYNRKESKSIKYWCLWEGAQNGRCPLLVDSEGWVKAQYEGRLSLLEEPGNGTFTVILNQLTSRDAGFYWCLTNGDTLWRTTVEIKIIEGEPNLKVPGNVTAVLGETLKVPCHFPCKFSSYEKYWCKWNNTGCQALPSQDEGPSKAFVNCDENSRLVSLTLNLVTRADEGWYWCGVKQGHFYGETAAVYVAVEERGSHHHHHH


Legend:
[1] = biological target: T4, human pIgR, full-length, on cells (human, UniProt P01833 19-764); assay: cell-based or functional assay
[2] = biological target: T4, human pIgR, full-length, on cells; assay: cell-based or functional assay; remark: listed apart in the source
[3] = biological target: T4, human pIgR, full-length, on cells; assay: cell-based or functional assay; remark: listed apart in the source
[4] = biological target: T4, human pIgR, full-length, on cells; assay: flow cytometry on MDCK-hpIgR cells
Protocol: Flow Cytometry was performed as follows. To test whether VHH-mono-Fc molecules recognize cell-surface hpIgR, Madin-Darby canine kidney (MDCK) cells engineered to express full-length hpIgR were used. Cells were cultured in Dulbecco's modified Eagle's medium containing 10% fetal calf serum at 37° C. with 5% CO₂. Cells were split into equal fractions (≈70,000 cells) and incubated with increasing concentrations of VHH-mono-Fc molecules for 30 min at 4 C. […] Cells were washed twice with cold staining buffer, resuspended in running buffer and analyzed with an iQue Screener (IntelliCyt Corporation). Binding was assessed by RL1 (A647) Geomeans from the live cell population and EC50 was calculated by fitting log VHH concentration versus MFI in Prism (Graphpad).

[5] = biological target: T5, human pIgR extracellular domain (ECD) (human, UniProt P01833 19-638); assay: BLI; summary table, repeats Table 1
T5 construct: also called hpIgR ECD

[6] = biological target: T5, human pIgR extracellular domain (ECD); assay: BLI; summary table, repeats Table 1; remark: listed apart in the source
[7] = biological target: T5, human pIgR extracellular domain (ECD); assay: BLI (Octet), VHH-mono-Fc and hpIgR ectodomain
[8] = biological target: T5, human pIgR extracellular domain (ECD); assay: ECL (MSD), hpIgR-ECD coated, anti-Fc detection
[9] = biological target: T5, human pIgR extracellular domain (ECD); assay: ECL (MSD), hpIgR-ECD coated, anti-VHH detection
[10] = biological target: T5, human pIgR extracellular domain (ECD); assay: ECL (MSD), anti-VHH detection against anti-Fc detection
hpIgR_D2-D3 [11] = biological target: T1, hpIgR_D2-D3; assay: BLI (Octet RED384), 1:1 fit, 25 C, PBS
Protocol: (§1) Bio-layer Interferometry was performed as follows. […] Data were collected with Octet Data Acquisition version 7.1.0.87 (ForteBio) and analyzed using Octet Data Analysis version 7.1 (ForteBio). To measure binding kinetics between VHH-mono-Fc molecules and HIS-tagged pIgR proteins, VHH-mono-Fc was immobilized on amine-reactive generation-2 (ARG2) biosensors according to manufacturer's instructions and increasing concentrations of pIgR proteins were exposed to sensor-immobilized VHH. In some cases, HIS-tagged pIgR proteins were immobilized on anti-HIS biosensors and exposed to increasing concentrations of VHH-mono-Fc molecules. Association and dissociation rates were measured by the shift in wavelength (nm). […] All reactions were performed at 25° C. in PBS.

[12] = biological target: T5, human pIgR extracellular domain (ECD); assay: BLI (Octet RED384), 1:1 fit, 25 C, PBS
Protocol: as §1

[13] = biological target: T6, human pIgR extracellular domain 1-domain 2 (D1-D2) (human, UniProt P01833 19-240); assay: BLI (Octet RED384), 1:1 fit, 25 C, PBS
T6 construct: HIS-tagged construct made in HEK293 cells
Protocol: as §1

[14] = biological target: T7, human pIgR extracellular domain 2 (D2) (human, UniProt P01833 128-242); assay: BLI (Octet RED384), 1:1 fit, 25 C, PBS
T7 construct: HIS-tagged construct made in HEK293 cells; also called hpIgR domain 2
Protocol: as §1

[15] = biological target: T4, human pIgR, full-length, on cells; assay: flow cytometry on MDCK-hpIgR cells; summary table, repeats Table 1
[16] = biological target: T4, human pIgR, full-length, on cells; assay: as above; remark: listed apart in the source
hpIgR_D2-D3 [17] = biological target: T1, hpIgR_D2-D3; assay: BLI (Octet RED384), 1:1 fit, 25 C, PBS; column kdis
[18] = biological target: T5, human pIgR extracellular domain (ECD); assay: as above
[19] = biological target: T6, human pIgR extracellular domain …; assay: as above
[20] = biological target: T7, human pIgR extracellular domain 2 (D2); assay: as above
hpIgR_D3 = biological target: T2, hpIgR_D3; assay: ECL (MSD) heat map, HIS-tagged construct captured via anti-HIS, anti-human-Fc detection;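 also: VHH-mono-Fc molecules tested at 100 µg/ml for 2 h on captured His-tagged pIgR constructs (10 µg/ml), read-out as electrochemiluminescence units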
[21] = biological target: T8, human pIgR extracellular domain 1 (D1) (human, UniProt P01833 19-127); assay: as above
T8 construct: HIS-tagged construct made in HEK293 cells; also called hpIgR domain-1

[22] = biological target: T9, human pIgR extracellular domain 5 (D5) (human, UniProt P01833 460-565); assay: as above
T9 construct: HIS-tagged construct made in HEK293 cells; also called hpIgR domain 5

[23] = biological target: T3, human pIgR extracellular domain …; assay: as above
Protocol: (§2) The Electrochemiluminescence assay was performed as follows. A meso-scale discovery (MSD) platform was used for conducting epitope mapping and epitope burial studies. To test the binding of VHH-mono-Fc molecules to purified pIgR protein constructs, Streptavidin MSD plates were coated with a biotinylated anti-HIS antibody (2 μg/ml in PBS) for 1 hour at RT with 1000 rpm, washed 3× with PBT (PBS+0.1% Tween-20), incubated with blocking buffer for 1 hour at RT, incubated with His-tagged pIgR proteins (10 μg/ml in PBS) for 2 hours at RT with 1000 rpm, washed 3× with PBT, incubated with VHH-mono-Fc molecules (100 μg/ml in PBS) for 2 hours at RT with 1000 rpm, washed 3× with PBT, incubated with ruthenylated-anti-human-Fc antibody (2 μg/ml in PBS) for 1 hour at RT with 1000 rpm, washed 3× with PBT and read plates in 40 ul reading buffer using the MSD imager. ECLU values were plotted as a heatmap.

[24] = biological target: T5, human pIgR extracellular domain (ECD); assay: BLI (Octet RED384), 1:1 fit, 25 C, PBS; remark: listed apart in the source
[25] = biological target: T3, human pIgR extracellular domain …; assay: BLI (Octet RED384), 1:1 fit, 25 C, PBS
[26] = biological target: T5, human pIgR extracellular domain (ECD); assay: BLI (Octet RED384), 1:1 fit, 25 C, PBS; column kdis; remark: listed apart in the source
[27] = biological target: T3, human pIgR extracellular domain …; assay: as above
[28] = biological target: T7, human pIgR extracellular domain 2 (D2); assay: ECL (MSD) heat map, HIS-tagged construct captured via anti-HIS, anti-human-Fc detection;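 also: VHH-mono-Fc molecules tested at 100 µg/ml for 2 h on captured His-tagged pIgR constructs (10 µg/ml), read-out as electrochemiluminescence units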
hpIgR_D2-D3 [29] = biological target: T1, hpIgR_D2-D3; assay: as above
Protocol: as §2

[30] = biological target: T9, human pIgR extracellular domain 5 (D5); assay: as above; remark: listed apart in the source
Protocol: as §2

T4 sequence (P01833 19-764): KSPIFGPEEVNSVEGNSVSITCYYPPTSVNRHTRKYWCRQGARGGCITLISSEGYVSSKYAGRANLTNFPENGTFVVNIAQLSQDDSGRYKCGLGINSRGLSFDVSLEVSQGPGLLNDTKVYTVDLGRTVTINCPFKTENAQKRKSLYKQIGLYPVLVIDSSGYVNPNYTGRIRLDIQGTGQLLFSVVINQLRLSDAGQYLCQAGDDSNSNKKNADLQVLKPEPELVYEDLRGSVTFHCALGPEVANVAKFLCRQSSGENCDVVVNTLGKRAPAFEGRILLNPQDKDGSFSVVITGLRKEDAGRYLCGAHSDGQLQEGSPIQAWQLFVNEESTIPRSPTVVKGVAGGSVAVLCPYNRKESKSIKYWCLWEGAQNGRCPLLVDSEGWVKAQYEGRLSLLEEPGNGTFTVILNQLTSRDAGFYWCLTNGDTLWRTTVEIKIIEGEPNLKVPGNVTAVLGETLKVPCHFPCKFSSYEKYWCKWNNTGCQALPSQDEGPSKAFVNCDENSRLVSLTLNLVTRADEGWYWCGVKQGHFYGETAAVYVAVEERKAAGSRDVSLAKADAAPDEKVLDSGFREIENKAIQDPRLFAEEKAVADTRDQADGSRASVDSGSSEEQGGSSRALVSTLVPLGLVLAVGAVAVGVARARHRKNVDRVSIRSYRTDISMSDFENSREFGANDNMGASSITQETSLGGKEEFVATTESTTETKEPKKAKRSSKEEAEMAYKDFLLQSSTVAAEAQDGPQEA
T5 sequence (P01833 other isoform, or with tags, fused parts or gaps): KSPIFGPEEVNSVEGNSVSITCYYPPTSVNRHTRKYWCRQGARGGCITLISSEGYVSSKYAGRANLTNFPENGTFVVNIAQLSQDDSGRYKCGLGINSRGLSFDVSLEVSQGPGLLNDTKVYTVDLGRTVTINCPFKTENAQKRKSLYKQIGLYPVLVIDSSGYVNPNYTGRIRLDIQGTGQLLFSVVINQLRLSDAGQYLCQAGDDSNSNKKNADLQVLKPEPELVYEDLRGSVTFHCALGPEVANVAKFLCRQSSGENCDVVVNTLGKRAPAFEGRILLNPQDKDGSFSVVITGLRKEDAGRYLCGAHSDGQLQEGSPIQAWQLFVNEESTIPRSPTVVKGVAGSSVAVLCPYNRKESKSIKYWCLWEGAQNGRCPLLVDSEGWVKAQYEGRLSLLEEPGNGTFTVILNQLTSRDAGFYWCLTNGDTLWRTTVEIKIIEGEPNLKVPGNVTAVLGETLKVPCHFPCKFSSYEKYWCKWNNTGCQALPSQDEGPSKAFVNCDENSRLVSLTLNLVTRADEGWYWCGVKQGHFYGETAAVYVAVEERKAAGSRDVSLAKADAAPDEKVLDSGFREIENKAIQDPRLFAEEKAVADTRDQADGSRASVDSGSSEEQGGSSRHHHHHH
T6 sequence (P01833 other isoform, or with tags, fused parts or gaps limits assumed): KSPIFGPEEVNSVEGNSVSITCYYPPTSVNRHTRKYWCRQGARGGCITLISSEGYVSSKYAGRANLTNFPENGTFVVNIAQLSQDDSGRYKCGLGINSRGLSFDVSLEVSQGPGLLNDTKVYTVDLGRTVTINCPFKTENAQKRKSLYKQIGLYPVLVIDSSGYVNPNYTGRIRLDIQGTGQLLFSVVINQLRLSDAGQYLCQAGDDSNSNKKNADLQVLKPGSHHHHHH
T8 sequence (P01833 other isoform, or with tags, fused parts or gaps limits assumed): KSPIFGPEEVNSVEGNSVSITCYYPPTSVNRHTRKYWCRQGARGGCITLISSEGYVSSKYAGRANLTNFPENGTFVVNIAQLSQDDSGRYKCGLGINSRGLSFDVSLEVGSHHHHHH

| Transcytosis (Fold Incr.) [2] [fold] | For. Trans. (Fold Incr.) [3] [fold] | Rev. Trans (Fold Incr.) [3] [fold] | EC50 [4] [nM] | Kd [5] [nM] | Kd [6] [nM] | Kd [7] [nM] | EC50 [8] [nM] | EC50 [9] [nM] | Fold change in EC50 [10] [fold] | EC50 [15] [nM] | EC50 [16] [nM] | Binder | binding result (hpIgR_D3) | further results |
| --- | --- | --- | --- | --- | --- | --- | --- | --- | --- | --- | --- | --- | --- | --- |
| 30.7 | 25.6 | 14.6 | 11.5 | 27 | 27 | 27 | 3.9 | 4190 | 1060 | 11.5 | 11.5 | VHH6-linker-mono-Fc protein (Fc fusion, made in CHO cells; also called VHH6-mono-Fc; hpIgR_181) EVQLVESGGGLVQAGGSLRLSCAVSGSSVSSDAMGWYRQAPGNQRAWVAFISGGGTTTYADSVKGRFTISRDNTKNTVYLHMNSLKPEDTAVYYCNHPLTSRWGQGTQVTVSSEPKTPKPQPQPQLQPQPNPTTESKSPKSPAPELLGGPSVFLFPPKPKDTLMISRTPEVTCVVVDVSHEDPEVKFNWYVDGVEVHNAKTKPREEQYNSTYRVVSVLTVLHQDWLNGKEYKCKVSNKALPAPIEKTISKAKGQPREPQVYTKPPSREEMTKNQVSLSCLVKGFYPSDIAVEWESNGQPENNYKTTVPVLDSDGSFRLASYLTVDKSRWQQGNVFSCSVMHEALHNHYTQKSLSLSPGK | no binding (tested: 100 ug/ml (single concentration)) | increase in their apical concentration relative to control VHH (MDCK-hpIgR monolayers) [1]: > 10 fold; Kd (hpIgR_D2-D3 [11]): 71.5 nM; kon (hpIgR_D2-D3 [11]): 34800 M⁻¹ s⁻¹; Kd [12]: 48.9 nM; kon [12]: 44700 M⁻¹ s⁻¹; Kd [13]: 63.2 nM; kon [13]: 40000 M⁻¹ s⁻¹; Kd [14]: 68.1 nM; kon [14]: 39500 M⁻¹ s⁻¹; koff (hpIgR_D2-D3 [17]): 0.00249 s⁻¹; koff [18]: 0.00219 s⁻¹; koff [19]: 0.00253 s⁻¹; koff [20]: 0.00269 s⁻¹; binding result [21]: no binding (tested: 100 ug/ml (single concentration)); binding result [22]: no binding (tested: 100 ug/ml (single concentration)); binding result [23]: no binding (tested: 100 ug/ml (single concentration)) |
| 5 | 1.3 | 3.4 | 20.4 | 256 | 256 | 256 | 17.6 | 43.9 | 2.5 | 20.4 | 20.4 | VHH10-linker-mono-Fc protein (Fc fusion, made in CHO cells; also called VHH10-mono-Fc; hpIgR_225) EVQVVESGGGLVQAGGSLRLSCAASGFTFTRYAMGWFRQAPGKERSFVAAISWSGSSAGYGDSVKGRFTISRDNAKNTLYLQMNSLKPEDTAVYYCAADPFNQGYWGQGTQVTVSSEPKTPKPQPQPQLQPQPNPTTESKSPKSPAPELLGGPSVFLFPPKPKDTLMISRTPEVTCVVVDVSHEDPEVKFNWYVDGVEVHNAKTKPREEQYNSTYRVVSVLTVLHQDWLNGKEYKCKVSNKALPAPIEKTISKAKGQPREPQVYTKPPSREEMTKNQVSLSCLVKGFYPSDIAVEWESNGQPENNYKTTVPVLDSDGSFRLASYLTVDKSRWQQGNVFSCSVMHEALHNHYTQKSLSLSPGK | no binding (tested: 100 ug/ml (single concentration)) | Kd [24]: 256 nM; kon [24]: 20000 M⁻¹ s⁻¹; Kd [25]: 115 nM; kon [25]: 16300 M⁻¹ s⁻¹; koff [26]: 0.00513 s⁻¹; koff [27]: 0.00188 s⁻¹; binding result [28]: no binding (tested: 100 ug/ml (single concentration)); binding result (hpIgR_D2-D3 [29]): no binding (tested: 100 ug/ml (single concentration)); binding result [30]: no binding (tested: 100 ug/ml (single concentration)) |
